These results are taken from PMC11623273.

This assay has as its target Fab fragment of neutralizing antibody HCV1.

Usually Kd stands for the equilibrium constant for the complex coming apart. A higher Kd goes with lower affinity. By koff is commonly meant a measure of how fast the partners let go of each other. High values mean fast dissociation, low ones slow dissociation. What is called kon is a measure of how fast the partners come together. A higher kon goes with fast association.

Fab fragment of neutralizing antibody HCV1, sequence (heavy, as listed by the source, chain 1 of 2): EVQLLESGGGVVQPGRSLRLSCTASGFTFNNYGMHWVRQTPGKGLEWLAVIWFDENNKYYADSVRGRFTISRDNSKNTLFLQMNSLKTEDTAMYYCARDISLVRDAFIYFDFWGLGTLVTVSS
Fab fragment of neutralizing antibody HCV1, sequence (light, as listed by the source, chain 2 of 2): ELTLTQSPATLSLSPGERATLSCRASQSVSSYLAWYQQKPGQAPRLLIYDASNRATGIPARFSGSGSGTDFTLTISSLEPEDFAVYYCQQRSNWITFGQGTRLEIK
soluble HCV E2 ectodomain (sE2) (domain or fragment), sequence (Q99IB8 384-719): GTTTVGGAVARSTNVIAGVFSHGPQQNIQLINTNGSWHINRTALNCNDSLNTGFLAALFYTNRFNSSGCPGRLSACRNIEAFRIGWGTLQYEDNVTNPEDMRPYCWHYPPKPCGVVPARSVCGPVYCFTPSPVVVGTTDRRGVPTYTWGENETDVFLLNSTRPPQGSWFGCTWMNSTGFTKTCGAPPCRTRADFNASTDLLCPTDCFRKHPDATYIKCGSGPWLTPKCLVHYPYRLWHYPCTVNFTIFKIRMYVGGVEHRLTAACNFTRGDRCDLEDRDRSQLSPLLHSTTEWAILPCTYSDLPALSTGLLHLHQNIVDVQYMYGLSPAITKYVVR

As for “soluble HCV E2 ectodomain (sE2) (domain or fragment)”, the Kd stood at 294 nM, the koff was 0.00435 s⁻¹ and the kon was determined as 14800 M⁻¹ s⁻¹.
